Numbering of substitutions follows the chain as printed. Names may count otherwise.

In test [1] the target is T1, recombinant human La protein (Homo sapiens, UniProt P05455).
T1 construct: La protein (La/SS-B, Sjögren's syndrome associated antigen B), human; It calls wildtype La an undefined mixture of oxidized and reduced protein; also called rh-La; wildtype La protein; source: bacteria lysates, purified (Ni-NTA)
Briefly: far-Western, overlay or dot blot; SDS-PAGE/immunoblotting under denaturing conditions: 2 µg rh-La or TCM-La on nitrocellulose, IgG4 ab constructs at 1.5 µg/mL in Blocking Solution, detected with anti-human IgG4-HRP. The settings on record: both partners purified. (In general: A western blot detects proteins with antibodies after separation by electrophoresis.)

Test [2] addresses T2, native human La protein of HeLa total cell extract (Homo sapiens (HeLa, endogenous), UniProt P05455).
T2 construct: La protein (La/SS-B), human, endogenous in HeLa cells; also called native La protein; source: endogenous, HeLa total extract
In words: co-IP; HeLa total extract (50 nM Tris/HCl pH 8.0, 150 mM NaCl, 1% IGEPAL CA-630) mixed with 2 µg purified ab and Protein G MicroBeads, on ice 30 min; La detected by blot with anti-La mab 5B9. The following applies: one partner purified.

T1 sequence (P05455 whole entry): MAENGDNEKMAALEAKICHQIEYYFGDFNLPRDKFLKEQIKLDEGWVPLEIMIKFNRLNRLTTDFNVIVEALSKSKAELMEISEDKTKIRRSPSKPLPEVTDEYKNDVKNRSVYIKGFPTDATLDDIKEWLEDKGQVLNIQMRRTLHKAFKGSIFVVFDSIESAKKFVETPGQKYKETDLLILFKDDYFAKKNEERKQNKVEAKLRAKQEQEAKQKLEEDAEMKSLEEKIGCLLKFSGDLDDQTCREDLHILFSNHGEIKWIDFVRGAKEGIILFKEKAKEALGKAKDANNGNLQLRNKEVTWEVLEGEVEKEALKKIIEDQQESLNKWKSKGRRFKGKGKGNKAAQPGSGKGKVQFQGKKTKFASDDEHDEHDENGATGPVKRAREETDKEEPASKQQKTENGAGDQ
T2 sequence (P05455 whole entry): as above

B1: murine 312B-IgG4 (scFv of the mature 312B VH and VL fused to human IgG4 Fc) (Fc fusion, mouse)
VH: QVKLQESGAELMKPGSSVKFSCKAAGYTFTDYWIEWLKQRPGHGLEWIGEILPGSVSIKYNEKFKGKATFTADTSSNTAYMQLSSLTSEDSAVYYCARSRSIYDGYFYYWGQGTTLTVSS
VL: DIVMTQSTASLSASVGETVTITCRASENIYTYLAWYQQKQGKSPQLLVYNAKTLAEGVPSRFSGSGSGTQFSLRINSLQPEDFGSYYCQHHYGTPYTFGGGTKLEIK
notes: flexible linker of three G4S motifs; VH-VL orientation; N-terminal murine Ig kappa leader for secretion; also called mature ab; source: permanent 3T3 production cell line, purified from cell culture supernatant (protein A); not shown: Fc (human IgG4, CH2 and CH3), C-terminal, kept
With B1, the binding result in test [1] and in test [2] was “binds” each time.

B2: mutated germline 312B-IgG4 with an aspartate to tyrosine mutation in the CDR3 region of the VH domain (Fc fusion, mouse)
VH: QVQLQQSGAELMKPGASVKLSCKATGYTFTGYWIEWVKQRPGHGLEWIGEILPGSGSTNYNEKFKGKATFTADTSSNTAYMQLSSLTTEDSAIYYCARSRSIYDGYFYYWGQGTTLTVSS
VL: B1 VL with V3Q, T8P, T31S, R74K
notes: as the germline VH of m6 with the aspartate in CDR3 replaced by tyrosine; flexible linker of three G4S motifs; as the germline VL of m6; VH-VL orientation; N-terminal murine Ig kappa leader for secretion; also called gl312B-D > Y; source: permanent 3T3 production cell line, purified from cell culture supernatant (protein A); not shown: Fc (human IgG4, CH2 and CH3), C-terminal, kept
Take B2: the binding result in test [1] and in test [2] was “binds” in each case.

These data come from publication PMC8584381, “A Small Step, a Giant Leap: Somatic Hypermutation of a Single Amino Acid Leads to Anti-La Autoreactivity” (International Journal of Molecular Sciences, 2021).
